Consider one molecule from patent US20250206828A1, “ANTI-ADENOSINE RECEPTOR (A2aR) ANTIBODIES AND THE USE THEREOF” (Adept Therapeutics Inc., priority 2022, published 2025).

Assay [1] concerns the target T1, human adenosine A2A receptor (A2aR) (human, UniProt P29274 1-412). Kind of assay: flow cytometry, HEK293-hA2aR cells, supernatant 1 ug/ml, average of triplicate.
The target in assay [2] is T1, human adenosine A2A receptor (A2aR). Kind of assay: flow cytometry on PBMC, donor human 1. In general terms: A flow cytometer gives signals particle by particle.
The target of assay [3] is cynomolgus adenosine A2A receptor (A2aR) (cynomolgus). Kind of assay: flow cytometry on PBMC, donor Cynomolgus 2.
In assay [4] the target is T1, human adenosine A2A receptor (A2aR). Kind of assay: flow cytometry on PBMC, donor human 2.
For assay [5] the target is unchanged. Kind of assay: cell-based or functional assay.
The target of assay [6] is cynomolgus adenosine A2A receptor (A2aR) (cynomolgus). Kind of assay: flow cytometry on PBMC, donor Cynomolgus 1.
Assay [7] concerns the target T1, human adenosine A2A receptor (A2aR). Kind of assay: flow cytometry titration, HEK293-hA2aR cells, purified antibody, average of 7 repeats.

T1 sequence (P29274 whole entry): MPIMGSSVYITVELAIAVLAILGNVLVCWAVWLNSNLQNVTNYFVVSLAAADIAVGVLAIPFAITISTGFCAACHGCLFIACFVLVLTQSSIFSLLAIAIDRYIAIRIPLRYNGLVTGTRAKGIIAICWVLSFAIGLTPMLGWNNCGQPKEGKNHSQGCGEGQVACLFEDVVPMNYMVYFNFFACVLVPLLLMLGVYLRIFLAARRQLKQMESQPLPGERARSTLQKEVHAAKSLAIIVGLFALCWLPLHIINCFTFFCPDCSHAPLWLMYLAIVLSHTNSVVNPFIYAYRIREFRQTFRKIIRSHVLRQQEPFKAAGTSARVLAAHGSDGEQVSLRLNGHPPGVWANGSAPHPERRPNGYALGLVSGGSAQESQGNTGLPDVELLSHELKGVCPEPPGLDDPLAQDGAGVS

B1: 3F6-9G5 (antibody, from another filing, V domains shown)
VH: QVQLQQPGTELVKPGAPVRLSCKASGFAFTSYWMNWVRQRPGRGLEWIGRIDPSDSEAHYHHKFWGKATLTVDKSSSTVYIQLNGLTSEDSAVYYCLRSLYGKGDYWGHGTTLTVSS
VL: DVLMTQTPLSLSVRLGDQASISCRSSQSLVHRNGNTYLEWYLQRPGQSPKLLIYKVSNRFSGVPDRFSGSGSGTDFTLKISRVEAEDLGVYYCYQGSHVPLTFGSGTKLEIK
By EC50 is commonly meant the concentration needed to bring the measured effect to its halfway point. Lower therefore signals greater potency. Molecule B1 displayed an MFI in assay [1] of 2040 MFI. In assay [2], this molecule returned a % of A2aR+ CD4+ T cells of 0.67%, a % of A2aR+ CD8+ T cells of 0.06%, a % of A2aR+ NK cells of 1.15% and a % of A2aR+ NKT cells of 0.62%. In assay [3], this molecule yielded a % of A2aR+ CD4+ T cells of 3.26%, a % of A2aR+ CD8+ T cells of 0.14%, a % of A2aR+ NK cells of 2.63% and a % of A2aR+ NKT cells of 1.14%. Besides, in assay [4], the % of A2aR+ CD4+ T cells stood at 0.48%, the % of A2aR+ CD8+ T cells was 0.03%, the % of A2aR+ NK cells is 0.99% and the % of A2aR+ NKT cells was determined as 0.47%. Besides, in assay [5], the IC50 of blocking activity, cAMP-Glo, 300 nM NECA, HEK293-hA2aR cells, supernatant (average of triplicate) came to 1.3 nM; the IC50 of blocking activity, cAMP-Glo, 1.25 uM NECA, HEK293-hA2aR cells, purified antibody was determined as 0.53 nM; the IC50 of blocking activity, cAMP-Glo, 5 uM Adenosine, HEK293-hA2aR cells, purified antibody is 0.93 nM. In assay [6], this molecule had a % of A2aR+ CD4+ T cells of 1.36%, a % of A2aR+ CD8+ T cells of 0.06%, a % of A2aR+ NK cells of 3.34% and a % of A2aR+ NKT cells of 0.85%. This molecule also returned a concentration giving a half-maximal response (EC50) in assay [7] of 0.71 nM.
